Measurements as given in paper PMC7948958.

Key:
[1] = target: rabbit skeletal actin filaments (rabbit) (UniProt P68135)
[2] = target: pyrene-labeled rabbit skeletal actin filaments (rabbit) (UniProt P68135); assay: other fluorescence titration; stopped-flow, quenching of pyrene-actin fluorescence; 0.05-0.3 μM EGFP-M15-2IQ mixed with 0.5-3 μM pyrene actin; with saturating ADP (0.5 mM in the text, 1 mM in the legend), apyrase omitted; apparent rate constants from linear fit of kobs against [actin], KD …; 20-mM Mops (pH 7.0), 100-mM KCl, 5-mM MgCl2, 0.1-mM EGTA, 20 °C
[3] = target: rabbit skeletal actin filaments (rabbit) (UniProt P68135); remark: listed apart in the source
[4] = target: pyrene-labeled rabbit skeletal actin filaments (rabbit) (UniProt P68135); assay: other fluorescence titration; stopped-flow, quenching of pyrene-actin fluorescence; 0.05-0.3 μM EGFP-M15-2IQ mixed with 0.5-3 μM pyrene actin; nucleotide-free (apyrase-treated); apparent rate constants from linear fit of kobs against [actin], KD calculated as k-6/k+6; 20-mM Mops (pH 7.0), 100-mM KCl, 5-mM MgCl2, 0.1-mM EGTA, 20 °C

Substance | actin-activated phosphate release (double-mixing stopped flow, MDCC-PbP), apparent association rate constant K9·k′+4 of M·ADP·Pi with actin, from the fast phase against [actin] up to 50 μM [1] [M⁻¹ s⁻¹] | Kd [2] [nM] | koff [2] [s⁻¹] | kon [2] [M⁻¹ s⁻¹] | actin-activated steady-state ATPase (NADH assay, 10-mM KCl, 20 °C), K ATPase; myosin from Sf9 coexpressing UNC45A (baculovirus) [3] [mM] | actin-activated steady-state ATPase (NADH assay, 10-mM KCl, 20 °C), K ATPase; myosin from Sf9 coexpressing UNC45B (baculovirus) [3] [mM] | Kd [4] [nM] | koff [4] [s⁻¹] | kon [4] [M⁻¹ s⁻¹] | actin-activated steady-state ATPase (NADH assay, 10-mM KCl, 20 °C), K ATPase; myosin from the Sf9-UNC45A cell line [3] [mM] | actin-activated steady-state ATPase (NADH assay, 10-mM KCl, 20 °C), K ATPase; myosin from the Sf9-UNC45B cell line [3] [mM]
EGFP-M15-2IQ motor domain complex (EGFP-M15-2IQ:ELC:RLC) (from UniProt Q9QZZ4-3 1-743; P60661 1-151) | 130000 | 310 | 0.55 | 1.75e+06 | 0.0061 | 0.0104 | 200 | 0.65 | 3.18e+06 | – | –
M15-2IQ-EGFP motor domain complex (M15-2IQ-EGFP:ELC:RLC) (from UniProt Q9QZZ4-3 1-743; P60661 1-151) | – | – | – | – | – | – | – | – | – | 0.0052 | 0.007
